Measured values from the nanobody polyreactivity screen of Harvey et al. (2022).

Assay: yeast display, Sf9 membrane polyspecificity reagent, FACS + sequencing; frameworks hold sequencing errors
Procedure, shortened: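 Synthetic nanobody libraries on Saccharomyces cerevisiae BJ5465 were galactose-induced for 36–48 hours, stained 1 hour at 4 °C with 10% biotinylated, detergent-solubilized Sf9 membrane reagent and enriched on streptavidin microbeads. FACS then separated cells into low and high (top ~1%) gates by anti-HA (expression) and streptavidin (reagent binding) fluorescence. Genes were colony-PCR amplified, MiSeq 2 × 250 sequenced and CDR-length filtered. A clone's polyreactivity label is that of its gate of origin.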

Sequence | polyreactivity (PSR sort gate)
QVQLVESGGGLVQAGGSLRLSCAASGRTFCTNAMGWYRQAPGTERELVAVISGSTGSTYYADSVKGRFTISRDNAKNTVYLQMNSLKPEDTAVYYCAASYRNTGRWSYRGDYWGQGTQVTVSS | high polyreactivity
QVQLVESGGGLVQAGGSLRLSCAASGRTFCYAMGWSRQAPGKERELVAAISYRGGGTYYADSVTGRFTISRDNAKYTVYLQMTSLKPEDTEVYFCNARQYRPWYPPYGYDYWGQGTQVTVSS | low polyreactivity
QVQLVESGGGLVQAGGSLRLSCAASGRTFDAYTMGWYRQAPGKEMELVAAITFSGGNTYYADSVKGRFIISRDNAKNTVYLQMNSLKPEDTAVYYCAARHWIYSTDYSTYYEYDSWGQGTQVTVSS | low polyreactivity
QVQLVESGGGLVQAGGSLRLSCAASGRTFDDNAMGWYRQAPGKEREFVADIDWSGGDTYYADSVKGRLTISRDNAKNTVYLQMNSLKPEDTAVYYCAARPIISVGRSRYDYWGQGTQVTVSS | high polyreactivity
QVQLVESGGGLVQAGGSLRLSCAASGRTFDDYAMGRYRQAPGKERELVAVITDNGGGTNYADSVKGRFTISRDNAKNTVYLQMNSLKPEDTAVYYCNAASDDFYPGRRTYGRDYWGQGTQVTVSS | low polyreactivity
QVQLVESGGGLVQAGGSLRLSCAASGRTFDDYTMGWYRQAPGKERELVAAITGGGSTNYADSVKGRFTISRDNAKNTVYLQMNSLKPEDTAVYYCNAEYSRSYRYDEGYWGQGTQVTVSS | low polyreactivity
QVQLVESGGGLVQAGGSLRLSCAASGRTFDFYAKGWYRQAPGKERELVAAITFSTGSTTYADSVKGRFTISRDNAKNTVYLQMNSLKPEDTAVYYCAADGDGWWWSYVDRYDYWGQGTQVTVSS | low polyreactivity
QVQLVESGGGLVQAGGSLRLSCAASGRTFDGYAMGWYRPAPGKERELVAAITYTGGSTYYADSVKGRFTISRDNAKNTVYLQMNSLKPEDTAVYYCNALYAVYSDFADDYWGQGTQVTVSS | low polyreactivity
QVQLVESGGGLVQAGGSLRLSCAASGRTFDHNAMGWYRQAPGKERELVAAITSRGGSTYYADSVKGRFTISRDIAKYTGYLQMNSLKPEDTAVYYCAARKRSVYGTEYDYLGQGTQVTVSS | high polyreactivity
QVQLVESGGGLVQAGGSLRLSCAASGRTFDIYAMGWYRPAPGKERELVAAISSGGSTYYADSVKGRFTISRDNAKNTVYLQMNSLKPEDTAVYYCAVRWYDQVSRRGIGYYWGQGTQVTVSS | low polyreactivity
QVQLVESGGGLVQAGGSLRLSCAASGRTFDLYAMGWYRQAPGKERELVAAITKGGGSTYYADSVKGRFTLSRDNAKNTVYLQMHSLKPVDTAVYYCAARKYKRIYRISSGIGYYWGQGTQVTVSS | high polyreactivity
QVQLVESGGGLVQAGGSLRLSCAASGRTFDLYAMGWYRQAPGKERELVATISRTGSTNYADSVKGRFTISRDNAKNTVYLQMNSLKPEDTAVYYCNADVPVSRWLRHGYYTVGYDYWGQGTQVTVSS | low polyreactivity
QVQLVESGGGLVQAGGSLRLSCAASGRTFDRNAMGWYRQAPGKERELVAAITSSGDSTYYADSVKGRFTISRDNSKNTVYLQMNSLKPEDTAVYYCAAGRRFGYWGQGTQVNVSS | high polyreactivity
QVQLVESGGGLVQAGGSLRLSCAASGRTFDSNAMGWYRQAPGKERELVAAISGSGDTTYYADSVKGRFTISRDNAKNTVYLQMNSLKPEDTAVYYCAARWGRSSGGGDYWGQGTQVTVSS | low polyreactivity
QVQLVESGGGLVQAGGSLRLSCAASGRTFDSNAMGWYRQAPGKERELVAAISSGGGSTYYADSVKGRFTISRDNAKNTVYLQMNSLKPEDTAVYYCAAVYHYYRGVNYWGQGTQVTVSS | high polyreactivity
QVQLVESGGGLVQAGGSLRLSCAASGRTFDTYAMGWYRQAPGKERELVAAITRRTYYADSVKGRFTISRDNAKNTVYLQMNSLKPEDTAVYYCAVRFLRKWTSSRHYGYWGQGTQVTVSS | high polyreactivity
